The record followed here is doi:10.1101/2021.12.01.470705 (bioRxiv, 2021).

Test [1] deals with WWOX tandem WW1-WW2 domains (amino acid 16-91) (human) (UniProt Q9NZC7). As to the kind of experiment: ITC.
Test [2] has the same target. Description: NMR titration.
Test [3] deals with T1, WWOX WW1 domain (amino acid 16-50) (human, UniProt Q9NZC7 16-50).
T1 chain (looked up): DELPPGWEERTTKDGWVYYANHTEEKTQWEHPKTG
As to the kind of experiment: ITC.

Test [4] deals with T2, WWOX tandem WW1-WW2 domains (amino acid 16-91) (human, UniProt Q9NZC7 16-91).
T2 sequence (looked up): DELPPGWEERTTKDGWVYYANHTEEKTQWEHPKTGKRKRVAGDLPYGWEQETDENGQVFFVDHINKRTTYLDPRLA
As to the kind of experiment: ITC.

In test [5] the target is T3, WWOX WW2 domain (amino acid 57-91) (human, UniProt Q9NZC7 57-91).
T3 chain (looked up): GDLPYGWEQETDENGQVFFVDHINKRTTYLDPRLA
As to the kind of experiment: ITC.

Where only a bound is given, the exact number is not on record here.

Molecule “ErbB4 double-motif peptide PY1PY2 (natural linker)” registered a Kd in test [1] of 14 µM. Besides, in test [2], the apparent KD, WW2 site came to 1000 µM.

Take ErbB4 single-motif peptide PY1: in test [1], the Kd is greater than 100 µM.

Molecule ErbB4 single-motif peptide PY2 gave a Kd in test [1] greater than 100 µM.

The molecule “PY3AY3, PY3PY3 peptide with PP-to-AA mutations in the C-terminal motif” displayed a Kd in test [1] of 27 µM.

With KPGTVLPPPPYRHRN (peptide, UniProt Q15303 1291-1305, looked up) [ErbB4 1291-1305 (PY3) single-motif peptide], the Kd in test [3] is 78 µM; in test [4], 30 µM; in test [5], greater than 200 µM.
